B1: G2.643: Anti-G2 antibody raised in rats (antibody, V domains shown)
VH: VNLVESGPELVKPGTSVKISCKASGYRFTSYYVHWVKQRPGQGLEWIGWIFPGSDNTKYNEKFKGKATLTADTSSSTAYMQLSSLTSEDSAVYFCASIYYGYDGTLYFDYWGQGTSVTVSS
VL: DIVMTQSHTFMSTSVGDRVSVTCKASQNVGNNVAWYQQKPGQSPNALIYSASYRYSGVPDRFTGSGSGTDFTLTISNVQSEDLAEYFCQQYDRYPLTFGGGTKLEIK
B2: G2.318 rat: anti-ABCG2 antibody raised in rat (antibody, V domains shown)
VH: EVKLLESGPGLVKPSQSLSLTCSVTGYTITSGYDWSWIRKFPGNKMEWMGYISYSGWTNYNPSLRSRISISRDTSKNQFFLQLNSVTTEDTATYYCARVRGYNPFAYWGQGTLVTVSS
VL: DIVMTQSPSLLSASVGDRVTLSCKAGQNINNYLAWYQQKLGEAPKLLIYNANSLQTGIPSRFSGSGSGTDFTLTISSLQPEDVATYFCQQYNSWTTFGSGTKLEIK
B3: G2.420 rat: anti-ABCG2 antibody raised in rat (antibody, V domains shown)
VH: SVQLMESGPGLVQPSQTLSLTCTVSGFSLNSYNVNWVRQPPGKGLEWIAAISSGGSTYYNSVLKSRLSITRDTSKSQVFLKMNSLQTEDTAMYFCARSGYYSSYMNWGQGVMVTVSS
VL: DVVMTQTPPTLSATIGQSVSISCRSSQSLLHSTGNTYLNWLLQRPGQPPQLLIYLVSRLEYGVPNRFSGSGSGTDFTLKISGVEAEDLGVYYCAQSTHALNTFGAGTKLELK
B4: G2.173 mouse: anti-ABCG2 antibody raised in mouse, listed in Table 2 (antibody, V domains shown)
VH: QVQLQQSGADLVRPGASVKLSCTASGFNIKDDYVHWVKQRPEQGLEWIGRIDPANGNTRYAPKFRGKATMTADTSSNTAYLQLSSLTSADTAVYYCSPPLWVGGFAYWGQGTLVTVSS
VL: DVVMTQTPLSLPVSLGDQASISCRSSQSLVHSDVNTYLHWYLQRPGQSPKLLIYKVSNRFSGVPDRFSGSGSGTDFTLKISRVESEDLGIYFCSQTTHVPYTFGGGTKLEIK
B5: G2.173 Humanized 1: humanized version of anti-ABCG2 antibody G2.173 (antibody, V domains shown)
VH: EVQLVQSGAEVKKPGASVKVSCKASGFNIKDDYVHWVRQAPGQGLEWIGRIDPANGNTRYAPKFRGRATMTADTSISTAYMELSRLRSDDTAVYYCSPPLWVGGFAYWGQGTLVTVSS
VL: DVVMTQSPLSLPVTLGQPASISCRSSQSLVHSDVNTYLHWYQQRPGQSPRLLIYKVSNRFSGVPDRFSGSGSGTDFTLKISRVEAEDVGVYFCSQTTHVPYTFGGGTKLEIK

Tests used:
ABCG2 [1] = target: T1, ABCG2 (Homo sapiens, UniProt Q9UNQ0); experiment: Flow cytometry binding to 293T cells overexpressing human ABCG2 (293T_ABCG2_OX); parameters: key to Binding by FACS: binding=“+”; non-significant binding=“−”; settings: for binding to 293T cells overexpressing human ABCG2: in words, FIGS. 7-11, 21
T1 construct: expressed in transfected cells
T1 sequence (Q9UNQ0 1-655): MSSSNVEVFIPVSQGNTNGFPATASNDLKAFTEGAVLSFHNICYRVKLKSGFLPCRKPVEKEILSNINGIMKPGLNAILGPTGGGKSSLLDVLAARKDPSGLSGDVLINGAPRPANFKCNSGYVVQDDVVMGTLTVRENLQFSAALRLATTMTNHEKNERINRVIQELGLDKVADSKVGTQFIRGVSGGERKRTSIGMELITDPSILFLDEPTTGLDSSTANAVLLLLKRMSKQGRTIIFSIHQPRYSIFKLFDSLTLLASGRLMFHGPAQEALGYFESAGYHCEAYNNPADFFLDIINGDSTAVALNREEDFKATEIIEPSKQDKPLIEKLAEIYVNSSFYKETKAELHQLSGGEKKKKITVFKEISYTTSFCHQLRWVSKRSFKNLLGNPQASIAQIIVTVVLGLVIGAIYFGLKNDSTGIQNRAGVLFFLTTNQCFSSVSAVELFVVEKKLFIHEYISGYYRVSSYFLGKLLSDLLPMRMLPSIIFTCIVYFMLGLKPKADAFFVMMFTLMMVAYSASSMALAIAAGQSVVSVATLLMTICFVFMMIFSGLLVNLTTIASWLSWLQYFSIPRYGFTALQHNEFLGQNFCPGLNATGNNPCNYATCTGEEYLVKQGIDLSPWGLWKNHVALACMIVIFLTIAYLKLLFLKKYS
Method: (§1) Cell Binding Assays. Antibody binding to cells was evaluated by flow cytometry. 293T cells stably transfected to express human or cynomolgus ABCG2 (293T_ABCG2_OX) were washed once in flow cytometry buffer (PBS+2% FBS+0.02% sodium azide), resuspended at 2×10^6 cells/mL in flow cytometry buffer, and dispensed into 96-well microtiter plates at 0.1 mL/well. Recombinant antibodies were added to cells at 5 ug/mL for initial binding confirmation, or serially diluted from 100 ug/mL in flow cytometry buffer. After incubating cells on ice for 30 min, cells were washed twice with flow cytometry buffer. Bound antibody was detected with PE-labeled F(ab′)2 fragment goat anti-human IgG (Jackson ImmunoResearch) and evaluated on an Attune NxT flow cytometer. EC50 is calculated to be the concentration of antibody that gives half maximal response.

cynomolgus ABCG2 = experiment: Flow cytometry binding to 293T cells overexpressing cynomolgus ABCG2; parameters: key to Cynomolgus ABCG2 binding: binding=“+”; non-significant binding=“−”; settings: for binding to 293T cells overexpressing cynomolgus ABCG2: in words, FIGS. 7-11, 21
Sequence of cynomolgus ABCG2 (as listed by the source): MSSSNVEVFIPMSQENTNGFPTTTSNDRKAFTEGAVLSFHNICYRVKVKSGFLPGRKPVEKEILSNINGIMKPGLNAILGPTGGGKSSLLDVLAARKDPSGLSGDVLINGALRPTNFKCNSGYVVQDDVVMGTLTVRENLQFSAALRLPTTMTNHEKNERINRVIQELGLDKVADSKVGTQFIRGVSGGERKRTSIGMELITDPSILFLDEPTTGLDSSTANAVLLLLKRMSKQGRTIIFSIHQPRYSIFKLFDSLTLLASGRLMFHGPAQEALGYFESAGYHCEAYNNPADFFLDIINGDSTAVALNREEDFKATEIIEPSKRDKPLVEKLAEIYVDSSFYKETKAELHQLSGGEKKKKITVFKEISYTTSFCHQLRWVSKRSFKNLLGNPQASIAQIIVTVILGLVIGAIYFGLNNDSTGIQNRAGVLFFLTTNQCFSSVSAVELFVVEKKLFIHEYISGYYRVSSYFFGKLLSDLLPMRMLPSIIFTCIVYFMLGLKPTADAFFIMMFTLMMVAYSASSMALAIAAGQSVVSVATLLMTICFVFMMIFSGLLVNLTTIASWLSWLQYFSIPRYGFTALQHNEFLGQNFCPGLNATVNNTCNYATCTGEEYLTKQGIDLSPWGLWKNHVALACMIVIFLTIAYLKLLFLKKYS
Method: as §1

293T_ABCG2_OX cells = assay type: cell-based, human; settings: for Killing: cell killing by topotecan on 293T_ABCG2_OX cells, viability relative to IgG control
Method: Cytotoxicity Assays. The effect of antibodies on topotecan cytotoxicity was evaluated on 293T_ABCG2_OX cells, 293T cells stably transfected to express ABCG2. Cells were plated in 0.05 mL of Assay Media (DMEM+10% FBS) at 5000 cells/well in white, flat bottom 96-well tissue culture plates. Topotecan was prepared at 2× final assay concentration by serial dilution from 200 uM in assay media containing test antibodies or control antibodies at 100 ug/mL (2× final concentration), or Fumitremorgin C, a small molecule ABCG2 inhibitor at 20 uM (2× final concentration). An equivalent volume (0.05 mL) of the topotecan/antibody mixture was added to the 293T_ABCG2_OX cells in 96-well plates. The plates were then incubated at 37° C., in 5% CO2. After 72-96 hr plates were equilibrated to room temperature and cell viability assessed using Promega® CellTiter-Glo® Luminescent Cell Viability Assay according to the manufacturer's recommended protocol. Luminescence was measured on a Molecular Devices® FlexStation® 3 Multi-Mode Microplate Reader and data analyzed using GraphPad Prism 8.0 software. Half maximal inhibitory concentration (1050) is the concentration of drug (topotecan or other chemotherapy cytotoxic agent) where the response (cell growth) is reduced by 50%.

ABCG2 [2] = target: T1, ABCG2; assay type: cell-based
Method: 293T_ABCG2_OX cells were washed several times and aliquoted into 96-well plates as 50 μl aliquots/well at a cell density of 2×10e6 cells per ml in phenol red-free DMEM. Cells were mixed with 50 μl antibodies or the small molecule inhibitors of ABCG2:-fumitremorgin C (FTC), or its tetracyclic analogue K0143, with a final concentration of 1 μM. Cells were then incubated in the presence of 2.5 μM Mitoxantrone 1 h at 37° C. The cells were subsequently washed twice and finally resuspended in […] PBS. Mitoxantrone fluorescence was measured using excitation at 635 nm and emission at 647 nm. Protocols was measuring efflux blockade are found in Szabo E, et al., PLoS One. 2018 Jan. 17; 13(1):e0190629; Deeken J F, et al., Mol Pharmacol. 2009 November; 76(5):946-56).

Molecule | binding to 293T cells overexpressing human ABCG2 (ABCG2 [1]) | binding to 293T cells overexpressing human ABCG2 (ABCG2 [1]; listed as G.643) | binding to 293T cells overexpressing cynomolgus ABCG2 (cynomolgus ABCG2) | binding to 293T cells overexpressing cynomolgus ABCG2 (cynomolgus ABCG2; listed as G.643) | effect on topotecan cytotoxicity on 293T_ABCG2_OX cells (293T_ABCG2_OX cells) | Binding by FACS (ABCG2 [1]; 293T_ABCG2_OX cells) | Kd (ABCG2 [1]; 293T_ABCG2_OX cells, read-out: Affinity for human ABCG2) [nM] | Cynomolgus ABCG2 binding (cynomolgus ABCG2) | Block Efflux (ABCG2 [2]) | efflux inhibition activity (ABCG2 [2]) | Killing (293T_ABCG2_OX cells)
B1 | strong binding | did not show significant binding | strong binding | did not show significant binding | significantly increased the cytotoxic activity of topotecan |  |  |  |  |  | 
B2 |  |  |  |  |  | + | 41 | + | + | strong efflux inhibition activity | + (viability ≥30% and <50% of IgG control)
B3 |  |  |  |  | significantly increased the cytotoxic activity of topotecan | + |  | + | + |  | 
B4 |  |  |  |  |  | + |  | − | − |  | − (≥75% of IgG control)
B5 |  |  |  |  |  | + |  | − | − |  | − (≥75% of IgG control)

Source: US20230212305A1, “ANTI-ABCG2 ANTIBODIES AND USES THEREOF” (Kenjockety Biotechnology, Inc., priority 2020, published 2023)
